Measurements: the supplement of paper PMC12636428

Tested on: Saccharomyces cerevisiae
Experiment: transcriptional activation domain activity (GFP:mCherry ratio, weighted mean of sorted bins, harmonized to initial dataset scale) (arbitrary fluorescence ratio units); higher = stronger transcriptional activation
Conditions: beta-estradiol 1 µM; induction time 4 h
Outline: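 The activation activity of each tile is the read-weighted mean of bin median fluorescence, averaged across its barcodes and mapped linearly onto the scale of the initial dataset. Tiles were fused to an estradiol-inducible synthetic transcription factor, barcoded, and integrated at URA3 in yeast diploids carrying a GFP reporter. Induction used 1 uM beta-estradiol in SC for 4 hours at 30 °C, after which cells were sorted into 8 GFP:mCherry bins, and any tile with fewer than 50 reads was dropped.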

Row | Sequence | transcriptional activation domain activity
1 | MSDDLGASPTQRPLRKSHRKSRKGCLDCRRRRVKCGEERPSCLVCVRRNVRCE | 49200
2 | MSDDSGASPTQRSVRKPHRKSRNGCLDCRRRRVKCGEEHPSCRVCVRRNVRCE | 49800
3 | MSDHRIIIVLAFFLIFFFNPPPLPLPTYPYQYSLLTYSLFFEPFFFSFPFFFS | 63100
4 | MSDLETPKRRRPGVRPRASQACRACAAAKVRCDNLQSCHRCQNKRVACVRGSH | 34100
5 | MSDLPLFFYFYFITVCITSWRFTCILAPGLFFSFYFFLCFFCLFSLLSLHDLM | 20700
6 | MSDTKSARSGDKERDKRRREKESDSSSKDGRRGSHSHSKTPEEPKEKGHKRKH | 13000
7 | MSDWEEKWSKSRNRPYYFNKTTNESVWDKPDGFDGPAAKPPGSEGKVRASHLL | 38300
8 | MSEEEGPAKSTSNKKRRLQGACDECRKRKVKCDSANMPGNQCSNCNVSHIECT | 42300
9 | MSENTAIENVTVTLEKTKLDAPVTNEAEVAHAASAAEGRRLYIGNLAYSTTEE | 16900
10 | MSENTAVENVTATLEKTKLEAPVTNEAEVAHAASAAEGRRLYIGNLAYSTTEE | 33100
11 | MSENVDPPSPHDKSEAPTKRGRGRPKGSKNKSAAAGAVEQEDPAPVIPRKRRL | 36300
12 | MSEPPRKRAKLACVTCNARRVKCDVTDRHPCSNCAAGNVECETRESRRGKHIR | 24000
13 | MSEPPRKRAKLACVTCNARRVKCDVTDRHPCTNCAAGNVECETRESRRGKHVR | 14300
14 | MSEPPRKRAKLACVTCNARRVKCDVTDRQPCTNCITGNVHCETRESKRGKHPR | 20300
15 | MSEPPRKRAKLACVTCNARRVKCDVTERQPCGNCVAGKILCETRESKRGKHPR | 33800
16 | MSEPPRKRAKLACVTCNARRVKCDVTERQPCSNCIAGNALCETRESKRGKHPR | 15300
17 | MSEPPRKRAKLACVTCNARRVKCDVTERRPCGNCIAGNVECETRESKRGKHPR | 32700

Row | Sequence | transcriptional activation domain activity
18 | MSEPPRKRAKLACVTCNSRRVKCDVTDRQPCTNCITANVHCETRESKRGKHPR | 40500
19 | MSEREREHRGGRQDRLTGRSRSRSVRRHEKGDKGADDGRQARERHRSRSPARK | 27400
20 | MSETNAPAASAPDALAEGIAKLDVGAEGAQASEAAAPQANGAGEAAPAAAEAS | 23400
21 | MSFFCLFHQLFDISCIFIYLILLENHFSLLCYLLLIFNFNCYFVIFSFLVLNF | 54800
22 | MSFFFFFIRYFPWLFDFWLLAFVFYCLLIPRLNIFFLSFSCFNFLVFSLLLVG | 56000
23 | MSFFLFFVSCLLLFFVFVLFLFFSFRSFLSSVPFPFRFCFLFLFALSLFFLLV | 41400
24 | MSFFLSFFVLFCFYFYFTPCLFFSSHLLTFFFFSDSPLFVFYFFYFFFSSFVY | 67700
25 | MSFFLYYFFYLLQGVIIHIIYTYISLFIPLHSFIIISFIFFFFIIFTLFFLLF | 70800
26 | MSFFWDTSLCACVTRIREMSFWEFLVGLAFFFFFLVKGSCICVACFFFFFFWS | 34200
27 | MSFKFFFCLLIPSFSLFKITYAWSYLMILEVVFSPFFSQVVVFVLFILHHFYH | 53000
28 | MSFKKDEETGVSSFYQDKTSVIQEARVFNETPISPRKCRILLTKVIYLLYSGE | 44100
29 | MSFLGLSFFAYLLGVGWILLFCLSFGLPQPLSFITWDCLTRGGFFFLLYFFCF | 44500
30 | MSFLHCFFHVRYFPSNLFVIVIMFLLLFVHSFARGWRMEYAVSFLFNSLVLMY | 61700
31 | MSFLLCGFCITFFFRFFLLSLFWMIRREQGICVSRLMFFFSFFFLSFNIIIFA | 52300
32 | MSFLYFIRCFVSFHLELLDCYYMMIECLFIFLIFCITICLPFICLYSLLVECF | 49800
33 | MSFQPLFYLLGLGVLFPLLFLLLSPPLFPSMAPFFLLQILLLMLTTELFFVPL | 39700
34 | MSFRFPTLFFFSLTLFLVSPFWFYLLFSVFFFLISLVFLESHFFCLGSINTLY | 39800
